The conditions of the data set: Escherichia coli (strain K12), Thermal, DSC, whole UniProt chain shown.
Where [1] appears, read: pH 7, 25 °C, potassium phosphate 1 mM, reversible: yes(<50%).
The mark [2] stands for this setting: pH 7, potassium phosphate 1 mM, reversible: yes(<50%).
Setting [3] is: pH 9.3, 25 °C, sodium tetraborate 1 mM, reversible: yes(>70%).
The mark [4] stands for this setting: pH 9.3, sodium tetraborate 1 mM, reversible: yes(>70%).

For orientation: Tm means the temperature at the midpoint of the melting transition.

B1: Tryptophan synthase alpha chain wild type, P0A877 (protein)
chain: MERYESLFAQLKERKEGAFVPFVTLGDPGIEQSLKIIDTLIEAGADALELGIPFSDPLADGPTIQNATLRAFAAGVTPAQCFEMLALIRQKHPTIPIGLLMYANLVFNKGIDEFYAQCEKVGVDSVLVADVPVEESAPFRQAALRHNVAPIFICPPNADDDLLRQIASYGRGYTYLLSRAGVTGAENRAALPLNHLVAKLKEYNAAPPLQGFGISAPDQVKAAIDAGAAGAISGSAIVKIIEQHINEPEKMLAALKVFVQPMKAATRS
With B1, the “heat capacity change of unfolding” value under setting [1] came to 2.9 kcal/mol/K, the “heat capacity change of unfolding” value under setting [2] turned out to be 2.9 kcal/mol/K, the “heat capacity change of unfolding” value under setting [3] was determined as 2.9 kcal/mol/K and the “heat capacity change of unfolding” value under setting [4] was 2.9 kcal/mol/K. Besides, the unfolding free energy is, setting by setting: under setting [1], 8.4 kcal/mol; under setting [3], 5.8 kcal/mol. Also, the Tm by setting is: under setting [2], 62.4 °C; under setting [4], 54.3 °C.

The values are drawn from FireProtDB (doi:10.1111/j.1399-3011.1982.tb00898.x).
